Measurements reported in patent US20230332166A1, “FORMATE-INDUCIBLE PROMOTERS AND METHODS OF USE THEREOF” (Imperial College Innovations Ltd, priority 2020, published 2023).

Tested on: Y. lipolytica JMY2900
Test: qPCR of putative FDH gene transcription upon induction with sodium formate
Format: cell-based, Yarrowia lipolytica
Details: YNB with 0.5% sodium formate, 6 h, 28° C., vs absence of formate; qPCR normalised to actin
Experimental: FIG. 3: Transcription levels of the FDH genes of Yarrowia lipolytica W29 measured by qPCR, normalised to actin (ACT1) expression. Yarrowia lipolytica was grown in YNB supplemented with 1% glucose and 0.5% yeast extract at 15 h at 28° C., before being washed and transferred into YNB with 0.5% of sodium formate for induction and grown for 6 h.
The inducibility of the putative FDH genes with formate was then tested by qPCR. YALI0E14256g1_1 and the nine putative FDH with the highest % identity to YALI0E14256g1_1 were selected for testing. Y. lipolytica JMY2900 was cultured in YNB media supplemented with 1% glucose and 0.5% yeast extract for 15 h at 28° C. Cells were washed with distilled water and cultured in fresh liquid YNB media supplemented with 0.5% sodium formate at 28° C. with agitation at 160 rpm, before being harvested at 6 h post-inoculated. Cells were frozen in liquid nitrogen and stored at −80° C. RNA was subsequently extracted using the RNeasy Mini Kit (Qiagen), and 2 μg was treated with DNAse (Ambion; Life Science Technologies, Saint-Aubain, France). cDNA was synthesised using the Maxima First Strand cDNA synthesis kit (Thermo Fischer Scientific, Villebon sur Yvette, France). qPCR was then performed using the SYBRgreen mastermix (Thermo Fischer Scientific) with gene-specific primers designed using Primer3 software. Relative expression levels were calculated using ΔCT and ΔΔCT methods. Expression levels were normalised to actin.

Molecule	Fold increase on induction (fold change expression of putative FDH genes upon induction with sodium formate) [fold]
Yali0F15983: putative Y. lipolytica FDH gene; promoter region SEQ ID NO: 3 (1 Kb) and 19 (1.5 Kb) (nucleic acid, listed as Yarrowia lipolytica, YALI0F15983g) DNA: ATGAAGGTCCTTCTTATTCTCTACTCTGCCGGTTCTCACGCCGTTGACGAGCCCAAGCTACTCGGTTGCACTGAGAACGAGCTCGGTCTCCGAAAGTGGCTCGAGTCCCGGGGCCACACGCTTGTGACCACCTCTTCAAAGGAGGGAGCCGACTCTGTGCTCGACAAGGAGATTGTCGATGCCGACATTGTCATCACTACTCCCTTCCACCCCGGTTACATCACCCGAGAGCGAATCGCCAAGGCCAAGAACCTCAAAATTTGCATCACTGCCGGTGTTGGTTCGGACCACGTCGATCTTGATGCTGCCAACGAGCGAGATATTGCCGTTCTCGAGGTCACTGGCTCCAACGTGCAGTCTGTGGCTGAGCACGTTGTCATGACCATGCTGGTCCTGGTCCGAAACTTTGTGCCTGCCCACGAGCAGGTCATGGCTGGTGGCTGGGACGTTGCTGCTGTCGCCAAGGACTCCTACGACATTGAGGGAAAGGTCATTGGTACTGTGGGAGGTGGCCGAATTGGTCAGCGAGTCCTAAAGCGAGTTGCTCCCTTCAACCCTAAGGAGATGCTCTACTACGACTACCAGGGTCTGTCTGCTGAGACCGAGAAGGAGCTGAACTGCCGACGAGTCGAGAAGCTCGAGGATATGCTTGCCCAGTGTGATATCGTCACCATCAACTGTCCCCTCCACGAGTCCACCAAGGGTCTCTTCAACAAGGAGATGCTCTCTCACATGAAGAAAGGTGCCTGGCTTGTCAACACCGCTCGAGGAGCCATCTGTGTCAAGGAAGACGTTGCTGAGGCTCTCAAGAACGGCCAGCTGCGAGGCTACGGAGGTGACGTCTGGTTCCCCCAGCCTGCTCCCGCTGACCACCCCTGGAGATCCATGCGAAACAAGTACGGAGCTGGAAACGCCATGACCCCCCATATCTCCGGTACTTGCATCGATGCCCAGGTTCGGTACGCCCAGGGAACCAAGAACATTCTCGACATGTTCTTCTCCGGTAAGCAGGACTACCGACCCCAGGACATCATCTGCATCAACGGTCACTACGGAACCAAGGCCTACGGTGATGACAAGGAGCATGCTAAAAAGTAGGCTGGACGTCGAAATAAACACATTGTTCATCTCTGGGTAGCCCAATAGTAAATAGGTAAGCTGTGATCATTA	4.2
Yali0C14344: putative Y. lipolytica FDH gene; promoter region SEQ ID NO: 7 (1 Kb) and 23 (1.5 Kb) (nucleic acid, listed as Yarrowia lipolytica, YALI0C14344g) DNA: ATGAAGGTCCTTCTTGTTCTATACGATGCCGGCTCCCACGCCAAGGATGAGCCAAAGCTACTTGGATGCACCGAGAACGAGCTCGGAATCAGAGACTGGCTCGAGTCACAGGGCCACACTCTTGTCACCACCTCTTCCAAGGACGGTGCCCACTCTGTGCTTGACAAGGAGATTGTCGATGCCGATGTAGTCATCACCACCCCTTTCCACCCCGGCTACATCAACAAGGAGCGAATTGACAAGGCCAAAAAGCTCAAGATCTGCATCACCGCTGGTGTTGGCTCCGACCACGTCGATCTCGACGCAGCCAACGCCCGAGATATCTCTGTTCTTGAGGTTACTGGTTCTAATGTCCAGTCTGTCGCAGAGCACGTCGTTATGACCATGCTGGTGCTGGTCCGAAACTTTGTGCCCGCCCACGAGCAGATCATCGAGGGCGGCTGGAATGTGGCTGCTGTCGCCAAGGACTCGTACGATCTCGAGGGAAAGGTCATTGGCACCGTTGGAGGCGGTCGAATCGGCCAGCGAGTGCTCAAGCGATGCAAGCCCTTTGACCCCATGGAGATGCTCTACTACGACTACCAGGCTATGCCAGCTGATGTGGAGAAGGAGATTGGATGCCGACGAGTCGAGTCTCTGGAGGAGAAGCTCTCTCTCTGTGACGTTGTCACCATCAACTGTCCCCTTCACGCCTCCACCAAGGGTCTCTTCAACAAGGAGCTCATTTCCCACATGAAGGACGGCGCTTGGCTCGTCAACACTGCTCGAGGAGCCATCTGCGTCACCGAGGACATTGTCGACGCTCTCGAGTTGGGCAAGATCCGAGGATATGGCGGTGACGTCTGGTTCCCCCAGCCTGCCTCCAAGGACCACCCCTGGAGAACCATGCGAAATAAGTACGGCGGTGGAAACGCCATGACTCCCCACATCTCCGGCACTTCCATCGACGCCCAGGGCCGATACGCTGAGGGTACCAAGAAGATCCTCGAGGTCTTTTTCTCGGGAAAGCAGAATTACAGACCCCAGGATATCATCTGTATCAACGGCCATTATGGTACAAAGGCCTACGGTGACGACAAGGAGCACAAGGGGCACCAGCAGAAGTGA	4.9
Yali0E14256: Y. lipolytica FDH gene; promoter region SEQ ID NO: 8 (1 Kb) and 24 (1.5 Kb) (nucleic acid, listed as Yarrowia lipolytica, YALI0E14256g) DNA: ATGAAGATCCTTCTTGTTCTCTACGACGCCGGTTCCCACGCCAAGGATGAGCCTCGACTTCTCGGATGTACCGAGAACGAGCTTGGTCTCCGTGACTGGATCGAGTCCCAGGGACACACCTTGGTGACCACCTCCGACAAGGACGGTGAGAACTCAACCGTCGACAAGGAGATTGTGGATGCTGAGATTGTTATCACCACCCCCTTCCACCCCGCTTACATCACCAAGGAGCGAATTGACAAGGCCAAGAAGCTCAAGATCTGTATCACTGCCGGTGTTGGTTCCGACCATGTCGACCTTGATGCCGCCAACGCCCGAGACATTGCCGTCCTCGAGGTTACCGGATCTAACGTCCAGTCCGTCGCTGAGCACGTTGTCATGACCATGCTGGTTCTGGTCCGAAACTTCGTCCCCGCCCACGAGCAGATCATCGAGGGTGGCTGGAATGTCGCTGCTGTCGCCAAGGACTCTTACGACATTGAGGGTAAGGTCATTGGTACTGTCGGCGGTGGCCGAATTGGTCAGCGAGTCCTGAAGCGACTTGCACCCTTCAACCCCATGGAGCTCCTCTACTACGACTACCAGCCCATGCCCAAGGACGTGGAGAAGGAGATTGGCTGCCGACACGTCCCTGATCTTAAGGAGATGCTCTCTGTCTGTGACATTGTTACCATCAACTGTCCTCTCCACGACTCTACCAAGGGTATGTTCAACAAGGAACTCATCTCCCACATGAAGGATGGTGCTTGGCTCGTCAACACCGCCCGAGGTGCCATCTGTGTCACTGACGACATTGTTGAGGCCCTCAAGTCCGGTAAGATCCGAGGCTACGGTGGTGATGTCTGGAACCCCCAGCCTGCCCCCAAGGACCACCCCTGGAGATACATGCGAAACAAGTGGGGCGGTGGAAACGCCATGACCCCCCATATCTCCGGTACCTCCATCGATGCCCAGGGCCGATACTCCGAGGGTACCAAGAACATTCTCGAGGTCTACTTCTCCGGAAAGCAGAACTACCGACCTCAGGATGTCATCTGTATCAACGGCCACTACGGCACTAAGGCTTACGGTGACGACAAGGAGCACAAGGCCCACGTTTCCAAATAAGCACTTTAGCTGTTTAACTTATAAGCAATTGACTACTAGAATTTGC	23.9
Yali0F28765: putative Y. lipolytica FDH gene; its formate-inducible promoter region is SEQ ID NO: 11 (1 Kb) and 27 (1.5 Kb) (nucleic acid, listed as Yarrowia lipolytica, YALI0F28765g) DNA: ATGAAGGTCCTTCTCATTCTCTACGACGCCGGCTCCCACGCTGTTGATGAGCCCAAACTACTCGGATGCACCGAGAACGAGCTCGGTATCCGATCATGGCTCGAGTCCCAGGGCCATACTCTGGTAACCACCTCTTCCAAGGATGGCGATGACTCTGTCCTCGACAAGGAAATTGTCGACGCCGATGTCGTCATCACCACTCCCTTCCATCCCGGTTACATTACCCGAGAGCGAATTGCCAAGGCCAAGAACCTCAAAATATGTGTTACTGCAGGTGTTGGTTCCGACCATGTCGACCTTGATGCCGCCAACGAGCGAGACATTGCCGTTCTCGAGGTCACTGGTTCCAACGTCCAATCCGTCGCTGAGCACGTCGTCATGACCATGCTCGTCCTCGTCCGAAACTTTGTCCCCGCTCACGAGCAGGTCATGGCTGGTGGTTGGGATGTTGCTGCTGTCGCCAAGGACTCTTATGACATCGAGGGTAAGGTCATTGGTACCGTTGGTGGTGGCCGAATTGGTCAGCGAGTCCTCAAGCGAGTGGCTCCCTTCAACCCTAAGGAGATGCTCTACTACGACTACCAAGGACTTTCTGCTGAGACCGAGCAGGAGCTCAACTGTCGACGAGTCGAGAAGCTTGAAGATATGCTTGCCCAATGTGACATTGTCACCATTAACTGTCCTCTCCACGAGTCTACCAAGGGCCTCTTCAACAAGGAGATGCTCTCTCACATGAAGAAGGGTGCTTGGCTTGTCAACACCGCTCGAGGAGCTATCTGTGTCAAGGAGGATGTCGCCGAGGCTCTTGCCAACGGCCAGCTTCGAGGCTACGGTGGTGATGTGTGGTTCCCTCAGCCAGCCCCTGCCGACCACCCTTGGAGATCGATGCGAAACAAGTACGGCGCCGGTAACGCTATGACCCCACACATATCTGGTACTTCCATTGACGCCCAGGCCCGATACGCCGAGGGCACCAAGAACATTCTCGAGGTCTTCTTCTCCGGAAAGCAGGACTACCGACCCCAGGATATCATCTGTATCAACGGTCACTACGGTACCAAGGCTTACGGCGACGACAAGGAGCACGCCAAGAAATAGATAATATTCATTAACATACAAATACAGTCTACAGTCCTATATCGATTCGGTCGCTTCGAG	8.1
